Here are results for 4 molecules from patent US20220177594A1 (ZOETIS SERVICES, published 2022).

By Kd is commonly meant a measure of binding affinity in units of concentration. Broadly, the koff is the rate constant with which the complex falls apart. By kon is commonly meant a measure of how fast the partners come together.

Residue numbers refer to the chain shown, from its start. Where two headings read alike, the source gives them in different places.

In assay [1] the target is T1, canine OSMR on canine cells (canine, UniProt A0A8I3MI11 28-967).
T1 sequence: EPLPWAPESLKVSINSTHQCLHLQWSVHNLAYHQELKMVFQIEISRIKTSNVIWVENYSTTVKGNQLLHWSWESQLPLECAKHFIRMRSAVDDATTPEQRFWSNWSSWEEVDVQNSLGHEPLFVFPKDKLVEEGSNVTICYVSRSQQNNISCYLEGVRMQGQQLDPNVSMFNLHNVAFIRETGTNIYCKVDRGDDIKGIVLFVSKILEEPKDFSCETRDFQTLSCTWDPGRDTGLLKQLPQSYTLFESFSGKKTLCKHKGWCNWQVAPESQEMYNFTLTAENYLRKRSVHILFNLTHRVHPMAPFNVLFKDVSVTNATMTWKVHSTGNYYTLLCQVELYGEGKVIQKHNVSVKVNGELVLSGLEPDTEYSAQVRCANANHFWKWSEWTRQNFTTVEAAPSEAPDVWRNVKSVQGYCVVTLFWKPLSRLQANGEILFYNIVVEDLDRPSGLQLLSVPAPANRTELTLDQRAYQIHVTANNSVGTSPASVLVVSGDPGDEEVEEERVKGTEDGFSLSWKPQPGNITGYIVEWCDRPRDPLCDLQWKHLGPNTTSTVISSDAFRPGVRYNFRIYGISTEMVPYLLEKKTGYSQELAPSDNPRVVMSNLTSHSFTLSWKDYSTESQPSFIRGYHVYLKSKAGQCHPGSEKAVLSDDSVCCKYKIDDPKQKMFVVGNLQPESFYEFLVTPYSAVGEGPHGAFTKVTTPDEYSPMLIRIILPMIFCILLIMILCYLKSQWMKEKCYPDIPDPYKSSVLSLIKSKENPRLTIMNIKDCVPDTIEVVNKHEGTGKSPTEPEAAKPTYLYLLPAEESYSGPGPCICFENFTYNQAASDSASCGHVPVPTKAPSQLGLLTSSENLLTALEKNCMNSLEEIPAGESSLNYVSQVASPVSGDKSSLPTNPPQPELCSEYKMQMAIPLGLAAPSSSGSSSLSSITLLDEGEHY
Briefly: cell-based or functional assay.

Assay [2] concerns the target T2, Human_OSMR (human, UniProt Q99650 28-739).
T2 construct: Bought protein; also called hOSMR
T2 sequence: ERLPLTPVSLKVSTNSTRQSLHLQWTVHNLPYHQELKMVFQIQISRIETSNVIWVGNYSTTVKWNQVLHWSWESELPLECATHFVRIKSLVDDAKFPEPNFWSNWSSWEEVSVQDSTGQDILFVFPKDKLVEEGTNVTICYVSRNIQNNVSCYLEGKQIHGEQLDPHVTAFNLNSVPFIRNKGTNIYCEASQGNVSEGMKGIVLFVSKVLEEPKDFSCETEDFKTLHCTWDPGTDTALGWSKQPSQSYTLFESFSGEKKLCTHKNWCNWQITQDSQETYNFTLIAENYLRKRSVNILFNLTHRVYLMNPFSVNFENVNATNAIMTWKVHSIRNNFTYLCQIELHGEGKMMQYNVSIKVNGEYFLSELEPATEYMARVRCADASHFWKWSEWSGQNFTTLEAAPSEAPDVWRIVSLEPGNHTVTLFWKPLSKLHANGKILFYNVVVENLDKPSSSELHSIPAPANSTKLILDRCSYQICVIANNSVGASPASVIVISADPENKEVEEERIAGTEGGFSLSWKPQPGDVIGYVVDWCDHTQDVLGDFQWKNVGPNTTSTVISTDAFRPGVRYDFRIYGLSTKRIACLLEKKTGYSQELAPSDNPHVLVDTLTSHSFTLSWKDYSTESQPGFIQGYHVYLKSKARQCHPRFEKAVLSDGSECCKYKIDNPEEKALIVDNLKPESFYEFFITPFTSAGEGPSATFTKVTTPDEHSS
Put plainly: SPR Biacore, OSMR on chip. How it is done: (§1) The affinity with which candidate mAbs bind canine, feline, and human (SEQ ID NO: 122; Human_OSMR) (R&D Systems, Minneapolis, Minn.) OSMR was determined using surface plasmon resonance (SPR) on a Biacore system (Biacore Life Sciences (GE Healthcare), Uppsala, Sweden). To avoid affinity differences associated with differential surface preparation that can occur when immobilizing antibodies to surfaces; OSMR from each species was directly conjugated to individual surfaces. Immobilization was obtained by amine coupling 5 μg/mL OSMR using N-hydroxysuccinimide (NHS)/1-Ethyl-3-(3-dimethylaminopropyl) carbodiimide (EDC) chemistry. Chips were quenched with ethanolamine and the affinity with which all candidate mAbs bound to the immobilized OSMR was evaluated. All curves were fit to a 1:1 model. […] Results for affinity measurements are described herein.

The target of assay [3] is T1, canine OSMR on canine cells. Briefly: cell-based or functional assay. The source holds these as a separate data set.
The target in assay [4] is T3, ANTIBODY EXPRESSION CONTROL.
T3 construct: also called mouse anti-canine antibody (capture reagent of the expression control ELISA)
Put plainly: SPR Biacore, expression control. The method in brief: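 Surface plasmon resonance with OSMR amine-coupled at 5 μg/mL via NHS/EDC, ethanolamine-quenched, and candidate mAbs flowed over as analyte. ka, kd and KD derived from 1:1 model fits.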
On the technique in general: Surface plasmon resonance follows binding to a sensor surface in real time, without labels.

In assay [5] the target is T4, feline OSMR on feline Fcwf-4 cells (feline, UniProt A0ABI8A843 28-960).
T4 sequence: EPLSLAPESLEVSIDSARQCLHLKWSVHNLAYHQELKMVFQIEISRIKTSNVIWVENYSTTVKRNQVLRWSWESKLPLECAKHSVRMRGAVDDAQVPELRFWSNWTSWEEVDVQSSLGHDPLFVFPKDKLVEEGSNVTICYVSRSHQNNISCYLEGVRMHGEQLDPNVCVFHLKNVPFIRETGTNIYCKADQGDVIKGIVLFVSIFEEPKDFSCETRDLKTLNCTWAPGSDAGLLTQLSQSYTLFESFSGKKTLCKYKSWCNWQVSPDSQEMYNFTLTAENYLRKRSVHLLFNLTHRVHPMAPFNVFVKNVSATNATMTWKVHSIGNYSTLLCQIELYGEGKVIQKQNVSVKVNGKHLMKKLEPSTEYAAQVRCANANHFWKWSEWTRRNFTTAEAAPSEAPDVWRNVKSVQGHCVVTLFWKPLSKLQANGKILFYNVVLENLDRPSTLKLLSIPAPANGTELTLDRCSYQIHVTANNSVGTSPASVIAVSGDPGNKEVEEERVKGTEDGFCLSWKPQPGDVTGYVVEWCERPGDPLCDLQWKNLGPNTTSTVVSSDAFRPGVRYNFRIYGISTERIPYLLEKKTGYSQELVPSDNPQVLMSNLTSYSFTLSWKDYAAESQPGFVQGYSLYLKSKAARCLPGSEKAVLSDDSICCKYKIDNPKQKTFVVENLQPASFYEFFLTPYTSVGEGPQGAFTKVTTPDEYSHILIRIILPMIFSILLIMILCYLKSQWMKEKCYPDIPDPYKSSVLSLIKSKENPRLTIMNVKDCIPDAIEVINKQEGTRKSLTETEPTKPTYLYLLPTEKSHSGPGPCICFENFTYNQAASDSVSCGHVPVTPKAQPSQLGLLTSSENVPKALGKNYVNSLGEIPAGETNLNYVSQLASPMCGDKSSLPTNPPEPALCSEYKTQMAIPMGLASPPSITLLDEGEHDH
Put plainly: cell-based or functional assay.

For assay [6], the target named is T4, feline OSMR on feline Fcwf-4 cells. Briefly: cell-based or functional assay. The source holds these as a separate data set.
In assay [7] the target is T2, Human_OSMR. Briefly: SPR Biacore. How it is done:
as §1
Caninized (canine) and felinized (feline) anti-OSMR antibodies were cloned, expressed, and purified. The sequence of each speciated antibody in Table 6 is described in Example 8. Affinity of these speciated antibodies to canine and feline OSMR was measured using Biacore. Table 5 describes results of these Biacore experiments for speciated antibodies that expressed and bound canine and/or feline OSMR. As indicated in the table, this first round of speciation produced antibodies from the 19F07, 09E09, and 10F07 lineage that expressed and bound to their protein target. For comparison to the mouse and mouse:canine chimeras having the same CDRs as these speciated versions, see Tables 1 and 3 respectively. […] Detailed here are the binding kinetics for antibodies that exemplify this goal.

B1: mouse: canine 09E09 chimera (antibody, V domains shown)
VH: DVKLVESGEGLVKPGGSLKLSCAASGFTFSSYAMSWVRQTPEKRLEWVAYISSGGDYIYYADTVKGRFTISRDNARNTLYLQMSSLKSEDTAMYYCTRDPITGTFAYWGQGTLVTVSA
VL: DLQMTQTTSSLSASLGDRVTISCRASQDINNYLNWYQQKPDGTVKLLIYYTSTLHSGVPSRFSGSGSGTDYSLTISNLEQEDIATYFCQQGNTLPWTFGGGTKLEIKR
notes: Mouse variable domains on canine IgG constant regions; also called 09E09 (Mouse:Canine); mouse:dog chimera 09E09
In the case of B1, in assay [1], the “IC50, inhibition of canine IL-31 pSTAT3 signaling, canine DH82 cells” value amounted to 47.5 µg/ml. In the assay with Human_OSMR [2], the binding result is reported as “no binding”. In addition, the “IC50, inhibition of canine IL-31 pSTAT3 signaling, canine DH82 cells” value in assay [3] was 31.3 µg/ml. For the same molecule, in assay [4], the Kd amounted to 0.0023 nM, the koff is 8.68e-07 s⁻¹ and the kon is 374000 M⁻¹ s⁻¹.

B2: mouse: canine 10F07 chimera (antibody, V domains shown)
VH: B1 VH with A49T, I58F
VL: B1 VL with L2I, N30T, Y71F, N92H, T93M
notes: Mouse variable domains on canine IgG constant regions; also called 10F07 (Mouse:Canine); mouse:dog chimera 10F07
B2: in assay [5], the “IC50, inhibition of canine OSM pSTAT3 signaling, feline Fcwf-4 cells” value stood at 0.28 µg/ml and the “IC50, inhibition of feline IL-31 pSTAT3 signaling, feline Fcwf-4 cells” value amounted to 0.05 µg/ml. Besides, in assay [1], the “IC50, inhibition of canine IL-31 pSTAT3 signaling, canine DH82 cells” value was 0.03 µg/ml and the “IC50, inhibition of canine OSM pSTAT3 signaling, canine DH82 cells” value came out at 0.2 µg/ml. In the assay with Human_OSMR [2], the binding result was “no binding”. Also, the “IC50, inhibition of feline IL-31 pSTAT3 signaling, feline Fcwf-4 cells” value in assay [6] stood at 0.32 µg/ml. In assay [3], the “IC50, inhibition of canine IL-31 pSTAT3 signaling, canine DH82 cells” value worked out at 0.05 µg/ml and the “IC50, inhibition of canine OSM pSTAT3 signaling, canine DH82 cells” value was determined as 0.16 µg/ml. In assay [4], the Kd turned out to be 0.617 nM, the koff worked out at 8.27e-05 s⁻¹ and the kon was 134000 M⁻¹ s⁻¹.

B3: mouse: canine 02D09 chimera (antibody, V domains shown)
VH: EVQLVESGGGLVKPGGSLTLSCAASGFTFSDYGMHWLRQAPEKGLEWVAYISSGSRAVFFADTVKGRFTISRDNAKNTLFLQMTSLRSDDTAMYYCARDRYDGRGFAYWGQGTLVTVSA
VL: DIVLTQSPATLSVTPGDSVSLSCRASQSISNNLHWYQQTSHESPRLLITYASQSISGIPSRFSGSGSGTDFTLSINSVETEDFGMYFCQQSNSWPLTFGAGTKLELKR
notes: Mouse variable domains on canine IgG constant regions; also called 02D09 (Mouse:Canine); chimeric 02D09
On to B3, for which the “IC50, inhibition of canine IL-31 pSTAT3 signaling, canine DH82 cells” value in assay [1] was determined as 97.7 µg/ml. Moreover, the binding result with Human_OSMR [2] is recorded as “no binding”. Further, the “IC50, inhibition of canine IL-31 pSTAT3 signaling, canine DH82 cells” value in assay [3] was determined as 97.7 µg/ml. For the same molecule, in assay [4], the Kd turned out to be 0.6 nM, the koff came to 9.15e-05 s⁻¹ and the kon came to 153000 M⁻¹ s⁻¹.

B4: Canine_OSM (ligand)
chain: SCSDKYPELLGQLQKQADFMQHTNTLLDLYIRSQGLDKNGLKEHCRERPGAFPSKDALQRLSRRVFLRTLDTTLGQVLLRLAALEQDIPKAQDLEMLSGVKLNIRGFKNNIHCMAQLLPGSSETTEPTPTSPGASPSPTPTLDTFQRRLEGCRFLHGYHRFMRSVGQVFREWGKSLSRSRR
notes: also called cOSM
In the assay with Human_OSMR [7], B4 displayed a Kd of 38.1 nM, a koff of 0.0039 s⁻¹ and a kon of 102000 M⁻¹ s⁻¹.
